Consider two proteins from ChEMBL document CHEMBL2074551, “Drug resistance and ATP-dependent conjugate transport mediated by the apical multidrug resistance protein, MRP2, permanently expressed in human and canine cells” (Mol Pharmacol, 1999).

Substrate in data set [1]: C[C@]12CC[C@@H]3c4ccc(O)cc4CC[C@H]3[C@@H]1CC[C@@H]2O[C@@H]1O[C@H](C(=O)O)[C@@H](O)[C@H](O)[C@H]1O
In words: (§1) TP_TRANSPORTER: uptake in membrane vesicle from MRP2-expressing HEK-293 cells. In kind it is functional, cell membranes, HEK293.

Substrate in data set [2]: CCCCC/C=C\C\C=C/C=C/C=C/[C@@H](SC[C@@H](NC(=O)CC[C@H](N)C(=O)O)C(=O)NCC(=O)O)[C@@H](O)CCCC(=O)O
Described as §1. In kind it is functional, cell membranes, HEK293.

B1: ATP-binding cassette sub-family C member 2 (Rattus norvegicus) (protein)
chain: MDKFCNSTFWDLSLLESPEADLPLCFEQTVLVWIPLGFLWLLAPWQLYSVYRSRTKRSSITKFYLAKQVFVVFLLILAAIDLSLALTEDTGQATVPPVRYTNPILYLCTWLLVLAVQHSRQWCVRKNSWFLSLFWILSVLCGVFQFQTLIRALLKDSKSNMAYSYLFFVSYGFQIVLLILTAFSGPSDSTQTPSVTASFLSSITFSWYDRTVLKGYKHPLTLEDVWDIDEGFKTRSVTSKFEAAMTKDLQKARQAFQRRLQKSQRKPEATLHGLNKKQSQSQDVLVLEEAKKKSEKTTKDYPKSWLIKSLFKTFHVVILKSFILKLIHDLLVFLNPQLLKLLIGFVKSSNSYVWFGYICAILMFAVTLIQSFCLQSYFQHCFVLGMCVRTTVMSSIYKKALTLSNLARKQYTIGETVNLMSVDSQKLMDATNYMQLVWSSVIQITLSIFFLWRELGPSILAGVGVMVLLIPVNGVLATKIRNIQVQNMKNKDKRLKIMNEILSGIKILKYFAWEPSFQEQVQGIRKKELKNLLRFGQLQSLLIFILQITPILVSVVTFSVYVLVDSANVLNAEKAFTSITLFNILRFPLSMLPMVTSSILQASVSVDRLERYLGGDDLDTSAIRRVSNFDKAVKFSEASFTWDPDLEATIQDVNLDIKPGQLVAVVGTVGSGKSSLVSAMLGEMENVHGHITIQGSTAYVPQQSWIQNGTIKDNILFGSEYNEKKYQQVLKACALLPDLEILPGGDMAEIGEKGINLSGGQKQRVSLARAAYQDADIYILDDPLSAVDAHVGKHIFNKVVGPNGLLAGKTRIFVTHGIHFLPQVDEIVVLGKGTILEKGSYRDLLDKKGVFARNWKTFMKHSGPEGEATVNNDSEAEDDDDGLIPTMEEIPEDAASLAMRRENSLRRTLSRSSRSSSRRGKSLKNSLKIKNVNVLKEKEKEVEGQKLIKKEFVETGKVKFSIYLKYLQAVGWWSILFIILFYGLNNVAFIGSNLWLSAWTSDSDNLNGTNNSSSHRDMRIGVFGALGLAQGICLLISTLWSIYACRNASKALHGQLLTNILRAPMRFFDTTPTGRIVNRFSGDISTVDDLLPQTLRSWMMCFFGIAGTLVMICMATPVFAIIIIPLSILYISVQVFYVATSRQLRRLDSVTKSPIYSHFSETVTGLPIIRAFEHQQRFLAWNEKQIDINQKCVFSWITSNRWLAIRLELVGNLVVFCSALLLVIYRKTLTGDVVGFVLSNALNITQTLNWLVRMTSEAETNIVAVERISEYINVENEAPWVTDKRPPADWPRHGEIQFNNYQVRYRPELDLVLKGITCNIKSGEKVGVVGRTGAGKSSLTNCLFRILESAGGQIIIDGIDVASIGLHDLRERLTIIPQDPILFSGSLRMNLDPFNKYSDEEVWRALELAHLRSFVSGLQLGLLSEVTEGGDNLSIGQRQLLCLGRAVLRKSKILVLDEATAAVDLETDSLIQTTIRKEFSQCTVITIAHRLHTIMDSDKIMVLDNGKIVEYGSPEELLSNRGSFYLMAKEAGIENVNHTEL
Regarding B1, the values for the Km in data set [1] and in data set [2] were 6.9 µM and 1.1 µM, respectively.

B2: ATP-binding cassette sub-family C member 2 (Homo sapiens) (protein)
chain: MLEKFCNSTFWNSSFLDSPEADLPLCFEQTVLVWIPLGYLWLLAPWQLLHVYKSRTKRSSTTKLYLAKQVFVGFLLILAAIELALVLTEDSGQATVPAVRYTNPSLYLGTWLLVLLIQYSRQWCVQKNSWFLSLFWILSILCGTFQFQTLIRTLLQGDNSNLAYSCLFFISYGFQILILIFSAFSENNESSNNPSSIASFLSSITYSWYDSIILKGYKRPLTLEDVWEVDEEMKTKTLVSKFETHMKRELQKARRALQRRQEKSSQQNSGARLPGLNKNQSQSQDALVLEDVEKKKKKSGTKKDVPKSWLMKALFKTFYMVLLKSFLLKLVNDIFTFVSPQLLKLLISFASDRDTYLWIGYLCAILLFTAALIQSFCLQCYFQLCFKLGVKVRTAIMASVYKKALTLSNLARKEYTVGETVNLMSVDAQKLMDVTNFMHMLWSSVLQIVLSIFFLWRELGPSVLAGVGVMVLVIPINAILSTKSKTIQVKNMKNKDKRLKIMNEILSGIKILKYFAWEPSFRDQVQNLRKKELKNLLAFSQLQCVVIFVFQLTPVLVSVVTFSVYVLVDSNNILDAQKAFTSITLFNILRFPLSMLPMMISSMLQASVSTERLEKYLGGDDLDTSAIRHDCNFDKAMQFSEASFTWEHDSEATVRDVNLDIMAGQLVAVIGPVGSGKSSLISAMLGEMENVHGHITIKGTTAYVPQQSWIQNGTIKDNILFGTEFNEKRYQQVLEACALLPDLEMLPGGDLAEIGEKGINLSGGQKQRISLARATYQNLDIYLLDDPLSAVDAHVGKHIFNKVLGPNGLLKGKTRLLVTHSMHFLPQVDEIVVLGNGTIVEKGSYSALLAKKGEFAKNLKTFLRHTGPEEEATVHDGSEEEDDDYGLISSVEEIPEDAASITMRRENSFRRTLSRSSRSNGRHLKSLRNSLKTRNVNSLKEDEELVKGQKLIKKEFIETGKVKFSIYLEYLQAIGLFSIFFIILAFVMNSVAFIGSNLWLSAWTSDSKIFNSTDYPASQRDMRVGVYGALGLAQGIFVFIAHFWSAFGFVHASNILHKQLLNNILRAPMRFFDTTPTGRIVNRFAGDISTVDDTLPQSLRSWITCFLGIISTLVMICMATPVFTIIVIPLGIIYVSVQMFYVSTSRQLRRLDSVTRSPIYSHFSETVSGLPVIRAFEHQQRFLKHNEVRIDTNQKCVFSWITSNRWLAIRLELVGNLTVFFSALMMVIYRDTLSGDTVGFVLSNALNITQTLNWLVRMTSEIETNIVAVERITEYTKVENEAPWVTDKRPPPDWPSKGKIQFNNYQVRYRPELDLVLRGITCDIGSMEKIGVVGRTGAGKSSLTNCLFRILEAAGGQIIIDGVDIASIGLHDLREKLTIIPQDPILFSGSLRMNLDPFNNYSDEEIWKALELAHLKSFVASLQLGLSHEVTEAGGNLSIGQRQLLCLGRALLRKSKILVLDEATAAVDLETDNLIQTTIQNEFAHCTVITIAHRLHTIMDSDKVMVLDNGKIIECGSPEELLQIPGPFYFMAKEAGIENVNSTKF
As to B2, the Km in data set [1] stood at 7.2 µM; in data set [2] it was 1 µM.
